Assay results from paper PMC10284417.

Molecular target: EtpA^1-606 (Enterotoxigenic Escherichia coli (ETEC))
Assay: dynamic light scattering; Zetasizer, 4°C, 1 mg/mL protein in 20 mM Tris pH 7.5, 150 mM NaCl

In the case of EtpA^1-606 (domain or fragment), the stoichiometry N is reported as 2.
